Source: publication doi:10.1101/2025.11.11.687766

Experiments:
[1] = target: Retron-Eco8 reverse transcriptase (RT) (Escherichia coli); assay: cryo-EM structure
[2] = target: Retron-Eco8 effector (OLD-family nuclease), untagged, of the Retron-Eco8^ATP construct (Escherichia coli); assay: cryo-EM structure

Retron-Eco8 effector (OLD-family nuclease), untagged, of the Retron-Eco8^ATP construct (enzyme)
stoichiometry N (RT per effector (4:4)) [1]: 1
stoichiometry N [2]: 4
